Laboratory results as given in patent publication EP2042517A1.

Key:
[1] = molecular target: human V158 FcγRIIIa extracellular region fused with GST (human) (UniProt P08637); test: AlphaScreen competition
[2] = molecular target: FcγRIIIa on human PBMCs, heterozygous V158/F158 (human) (UniProt P08637); test: cell-based or functional assay
[3] = molecular target: F158 FcγRIIIa used in SPR (human) (UniProt P08637); test: SPR
[4] = molecular target: His-tagged V158 FcγRIIIa (human) (UniProt P08637); test: SPR, His-tagged receptor immobilized, antibody flowed
[5] = molecular target: FcγRIIIa on human PBMCs, homozygous F158/F158 (human) (UniProt P08637); test: cell-based or functional assay

Substance	Fold vs WT [1]	ADCC EC50 (DoHH-2 target cells, human PBMCs) [2]	also measured
alemtuzumab A298H (antibody)	0.27 fold		
alemtuzumab S239D/I332E (antibody)		3 ng/mL	
alemtuzumab V264I/I332E (antibody)		4 ng/mL	
alemtuzumab V264I/N297D/I332E (antibody)	0.05 fold		
wild-type alemtuzumab (antibody)		9.9 ng/mL	Kd [3]: 730 nM; Kd [4]: 68 nM
wild-type rituximab (antibody)			ADCC EC50 (WIL2-S target cells, human PBMCs) [5]: 1.7 ng/mL
